Source: article PMC12079483 (2025)
One block for each binder: values may come before it.

Assays:
[1] = target: D20-20K (IL-2 with 20K PEG conjugated at Asp20) (UniProt P60568 21-153, D20 to NAEK, Nε-2-azideoethyloxycarbonyl-L-lysine (NAEK) at position 20, conjugated with DBCO-tethered PEG of 20 kDa by copper-free click reaction); assay: SPR
[2] = target: Y45-20K (IL-2 with 20K PEG conjugated at Tyr45) (UniProt P60568 21-153, Y45 to NAEK, Nε-2-azideoethyloxycarbonyl-L-lysine (NAEK) at position 45, conjugated with DBCO-tethered PEG of 20 kDa by copper-free click reaction); assay: SPR

Kd [1]: 58.1 nM
B1: extracellular domains of the trimeric IL-2 receptor (IL-2Rαβγ) (complex)
chain 1: ELCDDDPPEIPHATFKAMAYKEGTMLNCECKRGFRRIKSGSLYMLCTGNSSHSSWDNQCQCTSSATRNTTKQVTPQPEEQKERKTTEMQSPMQPVDQASLPGHCREPPPWENEATERIYHFVVGQMVYYQCVQGYRALHRGPAESVCKMTHGKTRWTQPQLICTGEMETSQFPGEEKPQASPEGRPESETSCLVTTTDFQIQTEMAATMETSIFTTEYQ
chain 2: AVNGTSQFTCFYNSRANISCVWSQDGALQDTSCQVHAWPDRRRWNQTCELLPVSQASWACNLILGAPDSQKLTTVDIVTLRVLCREGVRWRVMAIQDFKPFENLRLMAPISLQVVHVETHRCNISWEISQASHYFERHLEFEARTLSPGHTWEEAPLLTLKQKQEWICLETLTPDTQYEFQVRVKPLQGEFTTWSPWSQPLAFRTKPAALGKDT
chain 3: LNTTILTPNGNEDTTADFFLTTMPTDSLSVSTLPLPEVQCFVFNVEYMNCTWNSSSEPQPTNLTLHYWYKNSDNDKVQKCSHYLFSEEITSGCQLQKKEIHLYQTFVVQLQDPREPRRQATQMLKLQNLVIPWAPENLTLHKLSESQLELNWNNRFLNHCLEHLVQYRTDWDHSWTEQSVDYRHKFSLPSVDGQKRYTFRVRSRFNPLCGSAQHWSEWSHPIHWGSNTSKENPFLFALEA

Kd [2]: 690 nM
B2: extracellular domain of the IL-2 receptor β chain (IL-2Rβ) (receptor)
chain: B1 chain 2

Kd [1]: 99.9 nM
B3: extracellular domain of the IL-2 receptor α chain (IL-2Rα, CD25) (receptor)
chain: B1 chain 1

Kd [2]: 32.8 nM
B4: extracellular domains of the dimeric IL-2 receptor (IL-2Rβγ) (complex)
chain 1: B1 chain 2
chain 2: B1 chain 3
